Experiment [1] deals with T1, Peptide 1956 (N-terminally biotinylated Tat-COX-2 peptide).
T1 construct: also called PL of COX-2
As to the kind of experiment: ELISA (modified G assay): GST-PDZ captured by anti-GST antibody, biotinylated peptide, HRP-streptavidin. A general note: ELISA stands for enzyme-linked immunosorbent assay.

The target in experiment [2] is T1, Peptide 1956 (N-terminally biotinylated …). Put plainly: ELISA titration of the biotinylated peptide on captured GST-PDZ.

B1: GST-PDZ fusion protein, PDZ domain of MAST2 (Accession no. AB047005) (other)
chain: ISALGSMRPPIIIHRAGKKYGFTLRAIRVYMGDSDVYTVHHMVWHVEDGGPASEAGLRQGDLITHVNGEPVHGLVHTEVVELILKSGNKVAISTTPLENSS
notes: also called MAST2 PDZ domain
With B1, in experiment [1], the binding result is on record as “binds”.

B2: GST-PDZ fusion protein, PDZ domain of SHANK3 (XM_037493 GID: 51476100) (other)
chain: SDYVIDDKVAVLQKRDHEGFGFVLRGAKAETPIEEFTPTPAFPALQYLESVDVEGVAWRAGLRTGDFLIEVNGVNVVKVGHKQVVALIRQGGNRLVMKVVSVTRKPEEDG
notes: also called SHANK3 PDZ domain
In the case of B2, the binding result in experiment [2] is recorded as “binds”.

B3: GST-PDZ fusion protein, PDZ domain of SHANK1 (GID 7025450) (other)
chain: ILKEKTVLLQKKDSEGFGFVLRGAKAQTPIEEFTPTPAFPALQYLESVDEGGVAWRAGLRMGDFLIEVNGQNVVKVGHRQVVNMIRQGGNTLMVKVVMVTRHPDMDEAVQNSS
notes: also called SHANK1 PDZ domain
Take B3: the binding result in experiment [2] is “binds”.

B4: GST-PDZ fusion protein, PDZ domain of SHANK2 (GID 6049185) (other)
chain: ILEEKTVVLQKKDNEGFGFVLRGAKADTPIEEFTPTPAFPALQYLESVDEGGVAWQAGLRTGDFLIEVNNENVVKVGHRQVVNMIRQGGNHLVLKVVTVTRNLDPDDNSS
notes: also called SHANK2 PDZ domain
Consider B4, for which the binding result in experiment [2] is given as “binds”.

The values are drawn from patent publication US20070020717A1 (ARBOR VITA, published 2007).
